What was measured:
DSS treated mice [1] = assay: DSS model: colon length; assay type: in vivo, C57BL/6 mice; settings: 50 nmoles/kg i.p. b.i.d.; 2.5% DSS 6 days
Method: Eight-week old C57BL/6 mice were housed 5 animals were cage and given food and water ad libitum for 7 days. Following the 7-day acclimation period, treatments were initiated concurrently with addition of 2.5% DSS to the drinking water. […] The mice were treated with 2.5% dextran sodium sulfate (DSS) in their drinking water for 6 days. Treatments were continued with SG-15 or […]-GLP2 twice a day (b.i.d.) in the morning and evening (every 8 and 16 hr) with i.p. injections at 50 nmoles/kg. Fresh 2.5% DSS drinking water was prepared every 2 days. Colon length was measured in mice included in the DSS model described in Example 1E. […] The graph in FIG. 8 represents data pooled from the 2 individual experiments (n=20).

IL-10 = IL-10 production by monocytes in co-culture TEER assay (Luminex); assay type: cell-based, human; settings: pre-incubated 6 hours prior to HK E. coli; basolateral supernatant
Method: Production of the cytokines TNF-α, IL-23, and IL-10 by monocytes was measured in the tissue culture supernatant from the basolateral chamber of the co-culture TEER assay performed in Example 1B. Following TEER readings, the supernatants were centrifuged at 10,000 g for 5 minutes at 4° C. to remove cell debris. Luminex analysis was performed according to the manufacturer's instructions (Magpix instrument and xPonent software version 4.2; Luminex Corporation (Austin, TX)). Luminex analysis was performed to determine the […] concentration of TNF-α and IL-23 produced by monocytes. Luminex analysis utilizes a bead-based system for quantification of multiple cytokines from a single sample. Like an ELISA, Luminex beads are coated with a capture antibody, and incubation with samples allows the target to bind to the capture antibody. Beads are washed and incubated with a fluorescently labeled detection antibody for quantification of bound target. Cytometric analysis is used to differentiate bead populations, which are loaded with differential fluorescent dyes, and to quantify cytokine levels by measuring detection antibody signal. TNF-α, IL-23, and IL-10 production in untreated cells and cells pre-incubated with SG-15 for 6 hours prior to HK E. coli treatment was normalized to pg/ml concentrations elicited by HK E. coli only, which was set to 1.0. […] The graphs in FIGS. 2A, 2B and 2C each represent data pooled from an individual experiment (n=3).

DSS treated mice [2] = assay: DSS model: gross pathology score; assay type: in vivo, C57BL/6 mice; settings: 50 nmoles/kg i.p. b.i.d., 2.5% DSS 6 days; for Gross pathology compared to vehicle treated DSS mice: score 0-5
Method: Eight-week old C57BL/6 mice were housed 5 animals were cage and given food and water ad libitum for 7 days. Following the 7-day acclimation period, treatments were initiated concurrently with addition of 2.5% DSS to the drinking water. […] The mice were treated with 2.5% dextran sodium sulfate (DSS) in their drinking water for 6 days. Treatments were continued with SG-15 or […]-GLP2 twice a day (b.i.d.) in the morning and evening (every 8 and 16 hr) with i.p. injections at 50 nmoles/kg. Fresh 2.5% DSS drinking water was prepared every 2 days. Gross pathology observations were made in mice included in the concurrent DSS model performed in Example 1E. […] The scoring system used was: (0)=no gross pathology, (1)=streaks of blood visible in feces, (2)=completely bloody fecal pellets, (3) bloody fecal material visible in cecum, (4) bloody fecal material in cecum and loose stool, (5)=rectal bleeding. Results are shown in FIG. 7, with the graph representing data pooled from the 2 individual experiments (n=20).

DSS model: body weight = assay type: in vivo, C57BL/6 mice; settings: 50 nmoles/kg i.p. b.i.d.; 2.5% DSS 6 days; percent change from day 0
Method: Eight-week old C57BL/6 mice were housed 5 animals were cage and given food and water ad libitum for 7 days. Following the 7-day acclimation period, treatments were initiated concurrently with addition of 2.5% DSS to the drinking water. […] The mice were treated with 2.5% dextran sodium sulfate (DSS) in their drinking water for 6 days. Treatments were continued with SG-15 or […]-GLP2 twice a day (b.i.d.) in the morning and evening (every 8 and 16 hr) with i.p. injections at 50 nmoles/kg. Fresh 2.5% DSS drinking water was prepared every 2 days. Body weight was measured daily from mice included in the DSS model described in Example 1E. Percent change from starting weight on day 0 was determined for each mouse. […] Weight loss in mice treated with SG-15 at day 6 was similar to weight loss observed with […]-GLP2. The graphs in FIG. 6 represent data pooled from the 2 individual experiments (n=20).

B1: SG-16: 119 amino acid protein (SEQ ID NO:9) encoded by the genome of Eubacterium eligens (protein, listed as Eubacterium eligens)
chain: MTGCSGSKEPDNKTSVDYTVVENADLPEELKKLIESKKDKVMRLTYTTKDYTYVVAGYGTRETSGYSIKVNDVYTGDNALYIDLNLIGPAAGEAVNEVETYPVIVLKMERREESVVFKM
For B1, the “Colon length / colon shortening elicited by DSS treatment” value (DSS treated mice [1]) was “slightly improved colon shortening”, the “IL-10 production normalized to HK E. coli only (set to 1.0)” value (“IL-10 production normalized” for short) (IL-10) was 1.23 and the “Gross pathology compared to vehicle treated DSS mice” value (DSS treated mice [2]) was “did not reduce gross pathology”.

B2: SG-18: 267 amino acid protein (SEQ ID NO:19) encoded by the genome of Clostridium bartlettii sp. nov. (protein, listed as Clostridium bartlettii)
chain: EVDSSKEQATSKDEKQVVVATSVAITEILDRLGVEVSGVPQTSYELPESAKGATEIGSPMNPDMEIIKSLNPTDVICVDTLGSDFEKQFEENNINADFYNLSNVDGLKETIAALGEKFNKQDKANEILDEIKEVENKVNSNKKSDDKILVLFGAPGSVMVATDKSYIGNLVELAGGNNIFSNATSSFTQINLEEIIKLNPDKILVMTHAVPEAAKKSVEEELSKDLWKNVNAVKNNDITYLENGYFGMSANLQIVEAVEKLGDILYE
In the case of B2, the “Body weight compared to vehicle-treated DSS mice” value (DSS model: body weight) is reported as “did not alter body weight”, the “Colon length / colon shortening elicited by DSS treatment” value (DSS treated mice [1]) is reported as “did not reduce colon shortening” and the “IL-10 production normalized” value (IL-10) is reported as 0.93. For the same molecule, the “Gross pathology compared to vehicle treated DSS mice” value (DSS treated mice [2]) was “did not reduce gross pathology”.

B3: SG-15: 400 amino acid protein (SEQ ID NO:1) encoded by the genome of Eubacterium eligens (protein, listed as Eubacterium eligens)
chain: EYTEIRTASELVEAAKSASGNYKLMTDIDMTGVEWTPWDFSGTFDGNGHSILNLSVKTVSKKTMKTYDGNRKEYKTYGAGFFGVLTGAKVTGLDIYGARIEITTTEPCFAAPIAGLADDSDISDCIIKDTYVSLTDSAKMWGTGGIAGFGSGNLDNITTDVTLVCVDTDAAVRDEQFMGGAYAAGFLNIRNCSITIDGYDSDHGYVHDGGLVGMYMVYPLELSKTYQGEVLNNKVKGMITFFEDNTDRRAYCQANMGEVMNWTYAYSGFTSDFKRNETYDYSVTLLPEMCSNPSYTDVVTEATASDFGYTTHTCSTCGYTYSDTYTIHEHKVDSYSVVKEAASTDKKDGIEAGTCSLCNQTVYREYAANVVTDDNTQATDNKASGTAVKKGMKESTAVFA
For B3, the “Body weight compared to vehicle-treated DSS mice” value (DSS model: body weight) was “significantly improved body weight”, the “Colon length / colon shortening elicited by DSS treatment” value (DSS treated mice [1]) was “reduced colon shortening” and the “IL-10 production normalized” value (IL-10) was 0.66. For the same molecule, the “Clinical scores compared with DSS mice treated with Gly2-GLP2” value (DSS treated mice [2]) was “No differences” and the “Gross pathology compared to vehicle treated DSS mice” value (DSS treated mice [2]) was “significantly improved gross pathology”.

B4: SG-17: 327 amino acid protein (SEQ ID NO:13) encoded by the genome of Eubacterium eligens (protein, listed as Eubacterium eligens)
chain: CNSKIDVKYDYNVEDYVQLGQYENISVQVDKTSIENELIESKIKQDVEDNTTYTEVDRGAIASDQILVTYTATSSGASLSGLTNTDGKTMILGTDTLGLELDELDQALYGMTPGQTKILIVDIPEDYSSDLYKGTRVVFELTMQTVAQANVPMITNAYVKEAFGYDTVEEYRQSIKESLETDINSKVENKIQEDVLSSLQDTFKISSYPDSLMEETRSRLETSIGFYADFSNLSKDEYCQKQYGLSFDDFVKKSVVQQLIMEAIVKDRNMTMREYDYKGSLDDFAADNGYSNADTFVEKFGKDKIVKAMLVQKAQDYVIEHANISYK
In the case of B4, the “Body weight compared to vehicle-treated DSS mice” value (DSS model: body weight) is reported as “did not alter body weight”, the “Colon length / colon shortening elicited by DSS treatment” value (DSS treated mice [1]) is reported as “did not reduce colon shortening” and the “IL-10 production normalized” value (IL-10) is reported as 0.51. For the same molecule, the “Gross pathology compared to vehicle treated DSS mice” value (DSS treated mice [2]) was “did not reduce gross pathology”.

From patent publication US12168677B2, “Proteins for the treatment of epithelial barrier function disorders” (Genevive, Inc., priority 2017, dated 2024)
